The record followed here is patent US20210340217A1, “NOVEL PEPTIDES AND COMBINATION OF PEPTIDES FOR USE IN IMMUNOTHERAPY AGAINST OVARIAN CANCER AND OTHER CANCERS” (Immatics Biotechnologies GmbH, priority 2017, published 2021).

For one experiment, the system named is CD8+ T cells. The experiment can be described thus: In vitro immunogenicity for MHC class I presented peptides (in vitro priming of CD8+ T cells with aAPCs, pMHC multimer readout). Type of experiment: cell-based, human.
Conditions: not given
As for the experimental part:
In order to obtain information regarding the immunogenicity of the TUMAPs of the present invention, the inventors performed investigations using an in vitro T-cell priming assay based on repeated stimulations of CD8+ T cells with artificial antigen presenting cells (aAPCs) loaded with peptide/MHC complexes and anti-CD28 antibody. […]
Generation of pMHC/anti-CD28 coated beads, T-cell stimulations and readout was performed in a highly defined in vitro system using four different pMHC molecules per stimulation condition and 8 different pMHC molecules per readout condition. […]
800.000 beads/200 μl were coated in 96-well plates in the presence of 4×12.5 ng different biotin-pMHC, washed and 600 ng biotin anti-CD28 were added subsequently in a volume of 200 μl. […] For the pMHC multimer readout using 8 different pMHC molecules per condition, a two-dimensional combinatorial coding approach was used as previously described (Andersen et al., 2012) with minor modifications encompassing coupling to 5 different fluorochromes. […] Peptide specific cells were calculated as percentage of total CD8+ cells. […] In vitro priming of specific multimer+ CD8+ lymphocytes was detected by comparing to negative control stimulations.
In the case of “773 (ALYGKLLKL; listed as Homo sapiens) [compound 773]”, the “Wells positive [%]” value is listed as “+++ (50%-69% = +++)”.
On to “774 (VYVDDIYVI; listed as Homo sapiens) [compound 774]”, for which the “Wells positive [%]” value was “+++ (50%-69% = +++)”.

Another experiment addresses HLA-A*01:01 (Homo sapiens, UniProt P04439, A114D/A174V/A182V/D101N/D185E/E176A/E190D/L180R/Q94H/R68K/S129P/T187R/V100A/V91M/W191G). The experiment can be described thus: MHC binding assay (UV-ligand exchange, beta2m ELISA). The conditions noted are these: peptide exchange yield. In outline:
(§1)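 Peptide–MHC complexes formed by UV-induced exchange of a UV-cleavable peptide for the test peptide. Exchange yield measured by streptavidin-capture ELISA detecting β2m (HRP anti-β2m, TMB, A450) on 100-fold diluted samples. Quantified against refolded HLA-A*02:01/MLA-001 standards (15-500 ng/ml).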
For orientation: In an ELISA, binding on a coated surface is turned into a signal by an enzyme label.
As to “290 (DMDEEIEAEY; listed as Homo sapiens) [compound 290]”, the Peptide exchange entry is recorded as “++ (>20% = ++)”.
On to “115 (FVDNQYWRY; listed as Homo sapiens) [compound 115]”, for which the Peptide exchange entry was “+++ (>50 = +++)”.
The same measure, in the same setting: in the case of “31 (LLDEGAMLLY; listed as Homo sapiens) [compound 31]” it was “++++ (>75% = ++++)”; in that of “112 (TVTGAEQIQY; listed as Homo sapiens) [compound 112]”, “++ (>20% = ++)”.
The same measure, in the same setting: in the case of “113 (QLDSNRLTY; listed as Homo sapiens) [compound 113]” it was “+++ (>50 = +++)”; in that of “116 (VLLDEGAMLLY; listed as Homo sapiens) [compound 116]”, “++ (>20% = ++)”.
Still for that read-out and setting: in the case of “291 (ETIRSVGYY; listed as Homo sapiens) [compound 291]” it was “+++ (>50 = +++)”; in that of “292 (NVTMKVVSVLY; listed as Homo sapiens) [compound 292]”, “+++ (>50 = +++)”; in that of “114 (VMEQSAGIMY; listed as Homo sapiens) [compound 114]”, “++ (>20% = ++)”.
Take “288 (SPVTSVHGGTY; listed as Homo sapiens) [compound 288]”: the Peptide exchange entry is given as “++ (>20% = ++)”.
Same read-out and setting: then “289 (RWEKTDLTY; listed as Homo sapiens) [compound 289]”, with “++ (>20% = ++)”.

The target of another experiment is HLA-A*24:02 (Homo sapiens, UniProt P04439, D101N/D140Y/D185E/E176V/E190D/F33S/G103R/G107R/I119L/I121M/I306V/K335N/L105A/L180Q/L300P/N151K/N90K/Q86E/Q94H/R106L/R138H/R89G/T104I/T345S/V100E/W191G/Y123F). The experiment is described as above. Particulars: peptide exchange yield. The method, boiled down:
as §1
As to “246 (RYLAVVHAVF; listed as Homo sapiens) [compound 246]”, the Peptide exchange result was “++++ (>75% = ++++)”.
Turning to “15 (VYHDDKQPTF; listed as Homo sapiens) [compound 15]”, the Peptide exchange entry is recorded as “++++ (>75% = ++++)”.
Still for that read-out and setting: in the case of “14 (FYFPTPTVL; listed as Homo sapiens) [compound 14]” it was “++++ (>75% = ++++)”.
On the same count and under the same terms, in the case of “77 (RYGPVFTV; listed as Homo sapiens) [compound 77]” it was “++++ (>75% = ++++)”.
Same read-out and setting: then “18 (KYPVHIYRL; listed as Homo sapiens) [compound 18]”, with “++++ (>75% = ++++)”; and “76 (KYVAELSLL; listed as Homo sapiens) [compound 76]”, with “++++ (>75% = ++++)”.
For the substance “78 (SFAPRSAVF; listed as Homo sapiens) [compound 78]”, the Peptide exchange result is listed as “++++ (>75% = ++++)”.
Regarding “13 (VYTFLSSTL; listed as Homo sapiens) [compound 13]”, the Peptide exchange result is reported as “++++ (>75% = ++++)”.
Same read-out and setting: in the case of “82 (SYFRGFTLI; listed as Homo sapiens) [compound 82]” it was “++++ (>75% = ++++)”; in that of “10 (RYSDSVGRVSF; listed as Homo sapiens) [compound 10]”, “++++ (>75% = ++++)”; in that of “16 (IYSPQFSRL; listed as Homo sapiens) [compound 16]”, “++++ (>75% = ++++)”.
Same read-out and setting: then “249 (VYTPTLGTL; listed as Homo sapiens) [compound 249]”, with “++++ (>75% = ++++)”; and “79 (SYNEHWNYL; listed as Homo sapiens) [compound 79]”, with “++++ (>75% = ++++)”.
Consider “11 (SYSDLHYGF; listed as Homo sapiens) [compound 11]”, for which the Peptide exchange result is on record as “++++ (>75% = ++++)”.
On the same count and under the same terms, then “17 (RFTTMLSTF; listed as Homo sapiens) [compound 17]”, with “++++ (>75% = ++++)”; and “19 (KYVKVFHQF; listed as Homo sapiens) [compound 19]”, with “++++ (>75% = ++++)”; and “255 (VFVSFSSLF; listed as Homo sapiens) [compound 255]”, with “+++ (>50 = +++)”.
As to “12 (KYEKIFEML; listed as Homo sapiens) [compound 12]”, the Peptide exchange result is “++++ (>75% = ++++)”.
With “80 (TAYMVSVAAF; listed as Homo sapiens) [compound 80]”, the Peptide exchange entry is given as “+++ (>50 = +++)”.
Take “81 (VYNHTTRPL; listed as Homo sapiens) [compound 81]”: the Peptide exchange result was “++++ (>75% = ++++)”.
On the same count and under the same terms, then “252 (LYQPRASEM; listed as Homo sapiens) [compound 252]”, with “+++ (>50 = +++)”.

A further experiment addresses HLA-A*02:01 (Homo sapiens, UniProt P04439, D140Y/D185E/D98H/E176V/E277Q/G131W/G231S/I119V/I121R/I166T/I218V/L300P/L318F/N151K/N90K/P208A/P217A/Q86G/Q94H/R138H/R169H/T345S). The description is as above. The conditions noted are these: peptide exchange yield. In outline: as §1
For “227 (YTFRYPLSL; listed as Homo sapiens) [compound 227]”, the Peptide exchange entry is given as “+++ (>50 = +++)”.
On to “234 (GVATRVDAI; listed as Homo sapiens) [compound 234]”, for which the Peptide exchange result is “++ (>20% = ++)”.
On the same count and under the same terms, in the case of “225 (SVFAHPRKL; listed as Homo sapiens) [compound 225]” it was “+++ (>50 = +++)”.
The same measure, in the same setting: then “228 (RLWDWVPLA; listed as Homo sapiens) [compound 228]”, with “++++ (>75% = ++++)”; and “224 (SLPRFQVTL; listed as Homo sapiens) [compound 224]”, with “++++ (>75% = ++++)”; and “70 (VLQGLLRSL; listed as Homo sapiens) [compound 70]”, with “++++ (>75% = ++++)”.
The same measure, in the same setting: then “216 (IMFDDAIERA; listed as Homo sapiens) [compound 216]”, with “++++ (>75% = ++++)”; and “71 (YLEDTDRNL; listed as Homo sapiens) [compound 71]”, with “++++ (>75% = ++++)”; and “1 (MIPTFTALL; listed as Homo sapiens) [compound 1]”, with “+++ (>50 = +++)”.
Consider “64 (FLDPDRHFL; listed as Homo sapiens) [compound 64]”, for which the Peptide exchange entry is recorded as “++++ (>75% = ++++)”.
Same read-out and setting: in the case of “67 (SLLLPSIFL; listed as Homo sapiens) [compound 67]” it was “++++ (>75% = ++++)”; in that of “232 (TISSLTHEL; listed as Homo sapiens) [compound 232]”, “++++ (>75% = ++++)”; in that of “222 (ALMRLIGCPL; listed as Homo sapiens) [compound 222]”, “++++ (>75% = ++++)”.
On the same count and under the same terms, in the case of “72 (YLTDLQVSL; listed as Homo sapiens) [compound 72]” it was “++++ (>75% = ++++)”; in that of “3 (ALIYNLVGI; listed as Homo sapiens) [compound 3]”, “++++ (>75% = ++++)”.
